Series [1] concerns the target T1, human MerTK (Homo sapiens, UniProt Q12866).
T1 sequence (Q12866 21-999): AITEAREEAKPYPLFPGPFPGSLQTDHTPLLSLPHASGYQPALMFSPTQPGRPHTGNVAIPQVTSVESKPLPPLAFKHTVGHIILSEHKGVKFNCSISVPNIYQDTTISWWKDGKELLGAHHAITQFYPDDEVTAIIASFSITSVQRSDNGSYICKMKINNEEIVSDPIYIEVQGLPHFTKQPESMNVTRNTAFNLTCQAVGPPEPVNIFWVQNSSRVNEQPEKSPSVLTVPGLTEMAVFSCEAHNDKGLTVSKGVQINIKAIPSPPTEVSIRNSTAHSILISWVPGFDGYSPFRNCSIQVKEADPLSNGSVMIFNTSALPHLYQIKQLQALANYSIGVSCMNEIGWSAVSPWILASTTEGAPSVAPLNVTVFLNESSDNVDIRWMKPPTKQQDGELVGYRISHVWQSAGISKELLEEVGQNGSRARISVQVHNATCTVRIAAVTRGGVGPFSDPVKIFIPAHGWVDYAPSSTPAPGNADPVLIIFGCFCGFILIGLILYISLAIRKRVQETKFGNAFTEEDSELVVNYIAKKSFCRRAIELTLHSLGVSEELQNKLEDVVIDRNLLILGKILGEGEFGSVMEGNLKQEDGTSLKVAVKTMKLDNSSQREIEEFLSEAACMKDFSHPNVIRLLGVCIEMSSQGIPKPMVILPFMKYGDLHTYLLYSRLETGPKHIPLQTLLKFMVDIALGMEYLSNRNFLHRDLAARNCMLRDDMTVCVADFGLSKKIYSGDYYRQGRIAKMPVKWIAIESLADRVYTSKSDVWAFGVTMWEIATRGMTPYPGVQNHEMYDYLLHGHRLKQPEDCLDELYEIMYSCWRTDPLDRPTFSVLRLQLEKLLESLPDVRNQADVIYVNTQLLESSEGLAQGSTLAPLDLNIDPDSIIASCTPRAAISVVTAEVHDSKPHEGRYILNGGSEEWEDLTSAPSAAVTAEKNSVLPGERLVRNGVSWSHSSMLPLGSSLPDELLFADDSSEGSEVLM
The series can be described thus: Test 9: antigen binding activity of humanized antibodies by ELISA. The note with it: compared with the original human chimeric antibody (m20A77_hIgG1LALA or 24A1_hIgG1LALA, respectively); FIG. 21. Here is the method:
(§1) The ELISA was performed according to the procedures indicated below. First, the respective antigens were added to an ELISA plate (Nunc) at a concentration of 5 μg/ml and immobilized overnight at room temperature. After removing the immobilization solution, 1% BSA/PBS was added for blocking reaction and left to stand at room temperature for 1 hour. After the blocking, the plate was washed with 0.05% Tween 20/PBS and an antibody solution was added for primary reaction at room temperature for 1 hour. After washing, an HRP-labelled antibody (GE Healthcare) was added for secondary reaction for 1 hour. After washing, a chromogenic substrate solution of TMB (Dako) was added for chromogenic reaction for 10 minutes, 1 N sulfuric acid was added to terminate the reaction and the absorbance was measured at 450 nm.
The prepared antibodies were checked for antigen binding activity by ELISA.

The target in series [2] is T2, binding of MerTK with Gas6 (Homo sapiens, UniProt Q12866).
T2 construct: purchased R&D Systems
T2 sequence (Q12866 26-499 limits assumed): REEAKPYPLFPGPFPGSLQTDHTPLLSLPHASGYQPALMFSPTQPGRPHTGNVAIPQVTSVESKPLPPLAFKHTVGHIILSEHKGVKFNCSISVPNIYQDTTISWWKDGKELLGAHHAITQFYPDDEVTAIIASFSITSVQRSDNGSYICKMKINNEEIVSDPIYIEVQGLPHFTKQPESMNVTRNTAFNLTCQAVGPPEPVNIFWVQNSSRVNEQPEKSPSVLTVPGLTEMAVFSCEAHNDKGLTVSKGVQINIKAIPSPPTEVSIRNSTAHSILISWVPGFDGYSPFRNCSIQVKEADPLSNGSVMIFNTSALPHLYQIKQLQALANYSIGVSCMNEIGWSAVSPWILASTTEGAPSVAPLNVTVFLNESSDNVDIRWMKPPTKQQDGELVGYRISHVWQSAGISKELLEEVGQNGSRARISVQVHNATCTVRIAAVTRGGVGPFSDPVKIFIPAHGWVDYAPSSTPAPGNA
The series can be described thus: Test 6: ligand binding inhibition ELISA, MerTK with Gas6. The settings on record: human MerTK 5 μg/ml immobilized; biotinylated Gas6 10 nM; FIGS. 13 and 15. How it is done: (§2) “20A77” and “24A1” were evaluated for the ability to inhibit binding of MerTK with various ligands. The MerTK ligands used were human Gas6 (R&D Systems) and human TULP1 (abcam plc.) which were respectively biotinylated using “Biotin Labeling Kit-NH” (Dojindo Laboratories Co., Ltd.). […] TULP1 is a ligand correlated with ocular toxicity, and an antibody having an activity to inhibit binding of MerTK with TULP1 may have ocular toxicity. Thus, an antibody having high inhibitory activity of binding to Gas6 and low inhibitory activity of binding to TULP1 may be an efficacious anti-tumor agent having low ocular toxicity.
as §1, with “The ligand binding inhibition test” for “The ELISA”, “was carried out as” for “was performed according to the procedures”, “First, human MerTK (R&D Systems) was” for “First, the respective antigens were”, “hour. […]” for “hour. After washing, an HRP-labelled antibody (GE Healthcare) was added for secondary reaction for 1 hour.”, “for 20” for “for 10”

Series [3] has as its target T1, human MerTK. The series can be described thus: MerTK phosphorylation inhibition test in hMerTK-EL4 cells stimulated with human Gas6. More on the design: expressed in transfected cells; host or cells: mouse lymphoma cell line EL4 (hMerTK-EL4). The class given is cell-based. The settings on record: hMerTK-EL4, antibody 1 hour, then 200 nM human Gas6 for 10 minutes; phospho-Mer ELISA; FIG. 1. Here is the method:
On the basis of the procedures indicated below, the clones were evaluated for MerTK phosphorylation inhibitory activity. Higher activity means higher binding ability to MerTK.
The cells (hMerTK-EL4) stably expressing human MerTK were cultured in a “DMEM high glucose medium” (Thermo Fisher Scientific Inc.) containing 10% FBS. After the cultivation, the cells were washed in PBS, suspended in a serum-free medium, plated in a 96-well plate at 1×10^6 cells/well and incubated at 37° C. for 3 hours. After the incubation, the respective clones were added, the hMerTK-EL4 was allowed to react for 1 hour, stimulated with 200 nM human Gas6 (R&D Systems) for 10 minutes and centrifuged and collected. The collected hMerTK-EL4 was lysed in a cell lysis solution, and the level of the phosphorylated MerTK protein in the lysate was determined using “Human Phospho-Mer DuoSet IC ELISA” (R&D Systems). The cell lysis solution used contained 1% “IGEPAL CA-630” (SIGMA) and 1×concentration of “Halt Protease and Phosphatase Inhibitor Single-Use Inhibitor Cocktail” (Thermo Fisher Scientific Inc.) added to MilliQ water.

Series [4] addresses T3, binding of MerTK with TULP1 (Homo sapiens, UniProt Q12866).
T3 construct: purchased R&D Systems
T3 sequence (Q12866 26-499 limits assumed): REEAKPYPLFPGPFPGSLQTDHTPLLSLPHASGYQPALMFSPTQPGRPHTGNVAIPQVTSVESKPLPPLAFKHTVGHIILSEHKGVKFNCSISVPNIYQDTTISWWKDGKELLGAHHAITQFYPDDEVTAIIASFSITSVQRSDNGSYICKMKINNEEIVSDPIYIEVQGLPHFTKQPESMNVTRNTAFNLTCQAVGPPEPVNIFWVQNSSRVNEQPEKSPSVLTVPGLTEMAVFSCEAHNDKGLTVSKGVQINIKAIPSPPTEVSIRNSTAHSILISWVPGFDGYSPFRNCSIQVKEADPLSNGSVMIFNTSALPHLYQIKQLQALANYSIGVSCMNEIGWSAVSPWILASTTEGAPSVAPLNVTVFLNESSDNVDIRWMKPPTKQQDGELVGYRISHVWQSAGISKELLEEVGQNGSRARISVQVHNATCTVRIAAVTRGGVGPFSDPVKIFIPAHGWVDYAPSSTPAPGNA
As to the kind of experiment: Test 6: ligand binding inhibition ELISA, MerTK with TULP1. The settings on record: human MerTK 5 μg/ml immobilized; biotinylated TULP1 40 nM; FIGS. 14 and 16. Here is the method:
as §2
as §1, with “The ligand binding inhibition test” for “The ELISA”, “was carried out as” for “was performed according to the procedures”, “First, human MerTK (R&D Systems) was” for “First, the respective antigens were”, “hour. […]” for “hour. After washing, an HRP-labelled antibody (GE Healthcare) was added for secondary reaction for 1 hour.”, “for 20” for “for 10”

Series [5] can be described thus: Test 8: toxic dose by in vivo ocular toxicity test, TB staining. The note with it: 3 or 10 mg/kg intravenous twice a week, eyes removed day 30. Also noted: species or system Balb/c mice. Here is the method: The ocular toxicity test was carried out using Balb/c mice. The mice intravenously received a solvent or “m20A77_mIgG1” at a dose of 3 or 10 mg/kg at a frequency of twice a week. At day 30 after the first administration, eyes were removed, fixed with a Karnovsky's fixative and then subjected to embedding in a resin, preparation of sections and TB staining carried out by Applied Medical Research Laboratory.

“Also recorded” adds a separate entry of the source.

B1: hz20A77_hIgG1LALA: humanized antibody derived from m20A77 with human IgG1 constant region having LALA sequence (antibody, V domains shown)
VH: QVQLVQSGAEVKKPGSSVKVSCKASGNTFTSYWMHWVRQAPGQGLEWIGNINPSSGGTNYNEKFKSRVTITVDKSTSTAYMELSSLRSEDTAVYYCARLNYYGFDGFAFWGQGTLVTVSS
VL: DIQMTQSPSSLSASVGDRVTITCKASQDINSYLSWFQQKPGKAPKTLIYRANRLVSGVPSRFSGSGSGTDYTLTISSLQPEDFATYYCLQYDEFPFTFGGGTKVEIK
Turning to B1, the “antigen binding activity (reactivity) in ELISA” value with human MerTK [1] is “reactivity similar to or higher than original human chimeric antibodies”.

B2: 24A1: anti-MerTK mouse monoclonal antibody clone; VH SEQ ID NO: 9, VL SEQ ID NO: 13 (antibody, V domains shown)
VH: EVQLVESGGGLVQPKGSLKLSCAASGFTFNVYDMHWVRQAPGEGLEWVARIRSKSSNYATNYADSVKDRFTISRDDSQSMLYLQMNNLQTEDTAIYYCVRDGSHYYYALDYWGQGTSVTVSS
VL: DIQMTQTTSSLSASLGDRVTISCRASQDINNYLNWYQQKLDGTVKLLIYYSSRLHSGVPSRFSGSGSGTDYSLTISNLEQEDIATYFCQQGKMFPWTFGGGTKLEIK
Consider B2, for which the “inhibition of binding of Gas6 with MerTK” value in series [2] is “inhibited binding of Gas6 with MerTK; also recorded: strongly inhibited binding of Gas6 with MerTK”. Moreover, the “MerTK phosphorylation inhibitory activity” value with human MerTK [3] is “inhibited binding of Gas6 with MerTK and MerTK phosphorylation in a concentration dependent manner”. For the same molecule, the “inhibition of binding of TULP1 with MerTK” value in series [4] was “did not inhibit binding of TULP1 with MerTK”.

B3: hz24A1_hIgG1LALA: humanized antibody derived from 24A1 with human IgG1 constant region having LALA sequence (antibody, V domains shown)
VH: EVQLVESGGGLVQPGGSLRLSCAASGFTFNVYDMHWVRQAPGKGLEWVARIRSKSSNYATNYADSVKDRFTISRDDAKNSLYLQMNSLRAEDTAVYYCVRDGSHYYYALDYWGQGTTVTVSS
VL: DIQMTQSPSSLSASVGDRVTITCRASQDINNYLNWYQQKPGKAPKLLIYYSSRLHSGVPSRFSGSGSGTDYTLTISSLQPEDFATYYCQQGKMFPWTFGGGTKVEIK
As for B3, in the series with human MerTK [1], the “antigen binding activity (reactivity) in ELISA” value is “reactivity similar to or higher than original human chimeric antibodies”.

B4: m20A77_mIgG1: mouse IgG1 antibody of m20A77 (antibody, V domains shown)
VH: QVQLQQPGTELVKPGASVKLSCRASGNTFTSYWMHWVKQRPGQGLEWIGNINPSSGGTNYNEKFKSKATLTVDKSSSTAYMQLSSLTSEDSAVYYCARLNYYGFDGFAFWGQGTLVTVSA
VL: DIKMTQSPSSMYASLGERVTITCKASQDINSYLSWFQQKPGKSPKTLIYRANRLVSGVPSRFSGSGSGQDYSLTISSLEYEDMGIYYCLQYDEFPFTFGSGTKLEIK
Turning to B4, the “TB-positive granules (retinal pigment epithelium)” value in series [5] (FIG. 19) is “no increase in TB-positive granules was observed”. Also, the “abnormal shrinkage of the outer nuclear layer” value in series [5] (FIG. 20) is “no abnormal shrinkage of the outer nuclear layer was observed”.

The values above are taken from US20250326862A1, “Antibody or Fragment Thereof Binding Specifically to Mertk, and Anti-Tumor Agent” (Chiome Bioscience Inc., priority 2021, published 2025).
